For assay [1], the target named is HLA-DRB1*0101 (human). The assay can be described thus: competition with 125I-labelled probe peptide on purified HLA-DR. The settings on record: remark: other sources report otherwise.
Assay [2] addresses HLA-B0702 (human). Nature of the assay: competition vs 125I-labelled probe peptide, purified soluble HLA.
In the next assay the target is HLA-B*0702 (human). The assay can be described thus: competition with 125I-labeled probe peptide, purified HLA.
The next assay has as its target HLA-DRB1*0301 (human). Nature of the assay: competition vs 125I-labelled probe peptide, purified HLA-DR.
Assay [3] addresses HLA-B0702 (human). The assay can be described thus: competition vs 125I probe peptide, purified HLA. The settings on record: remark: other sources report otherwise.
Assay [4] has as its target HLA-B0702 (human). The settings on record: remark: other sources report otherwise.
For assay [5], the target named is HLA-B0801 (human). Nature of the assay: competition with 125I-labelled probe peptide, purified HLA.
Assay [6] has as its target HLA-B0702 (human). The assay can be described thus: competition with 125I-labelled probe peptide on purified soluble HLA. The following applies: remark: other sources report otherwise.
The target in a further assay is HLA-A*0101 (human). Nature of the assay: competition with 125I-labelled probe peptide on purified HLA-A*0101.
In a further assay the target is HLA-A0101 (human). Nature of the assay: competition with 125I-labelled probe peptide, purified HLA.
The target of assay [7] is HLA-DRB1*0101 (human). The assay can be described thus: competition vs 125I-labelled probe peptide, purified HLA-DR.
The target in assay [8] is HLA-A0301 (human). The assay can be described thus: competition vs 125I-labelled probe peptide, purified soluble HLA.
In assay [9] the target is HLA-A0301 (human).
A further assay has as its target HLA-A*0301 (human). Nature of the assay: competition with 125I-labelled probe peptide on purified soluble HLA.
In assay [10] the target is HLA-B0801 (human). The assay can be described thus: competition vs 125I probe peptide, purified HLA. The following applies: remark: other sources report otherwise.
[11] abbreviates: remark: other sources report otherwise.

Read-outs that look alike come from different tables or passages of the source.

B1: … (peptide)
peptide: SYTWTGALITPCAAE
modifications: not checked
By IC50 is commonly meant the point on the concentration scale where inhibition reaches its midpoint. Low values mean inhibition by little substance, high ones a need for much substance. B1 returned an IC50 with HLA-DRB1*0101 (human) [1] of 5.63 nM.

B2: … (peptide)
peptide: AAKLSALGL
modifications: not checked
As a reminder, the Ki is the equilibrium dissociation constant of an inhibitor or competing ligand from its target. Higher therefore signals weaker binding. B2 showed a Ki with HLA-B0702 (human) [2] of 277 nM. For the same molecule, in the assay with HLA-B*0702 (human), the IC50 turned out to be 277 nM.

B3: … (SEQ ID NO 2149) (peptide)
peptide: GPRLGVRATRKTSER
modifications: not checked
In the assay with HLA-DRB1*0301 (human), B3 registered an IC50 of 18900 nM.

B4: … (peptide)
peptide: QPRGRRQPI
modifications: not checked
As to B4, the Ki with HLA-B0702 (human) [3] was 1 nM; with HLA-B0702 (human) [4], < 1000 nM; with HLA-B0801 (human) [5] (setting [11]) it was 3 nM; with HLA-B0702 (human) [6], 1 nM.

B5: … (peptide)
peptide: FTDNSSPPA
modifications: not checked
B5: the IC50 with HLA-A*0101 (human) stood at 10 nM. The molecule further gave a Ki in the assay with HLA-A0101 (human) of 10 nM.

B6: … (peptide)
peptide: APLGGAARAL
modifications: not checked
Take B6: the Ki in the assay with HLA-B0702 (human) [3] and with HLA-B0702 (human) [6] was 1 nM each time. In the assay with HLA-B*0702 (human) (setting [11]), this molecule came in with an IC50 of 0.8 nM.

B7: … (peptide)
peptide: LHGPTPLLY
modifications: not checked
Take B7: in the assay with HLA-A0101 (human), the Ki is 20000 nM.

B8: … (SEQ ID NO 2142) (peptide)
peptide: GHRMAWDMMMNWSPT
modifications: not checked
Consider B8, for which the IC50 with HLA-DRB1*0101 (human) [7] stood at 183 nM; with HLA-DRB1*0301 (human) it was 919 nM.

B9: … (peptide)
peptide: YLFNWAVRTK
modifications: not checked
Consider B9, for which the Ki with HLA-A0301 (human) [8] was < 1000 nM.

B10: … (SEQ ID NO 2193) (peptide)
peptide: PTHYVPESDAAARVT
modifications: not checked
Regarding B10, in the assay with HLA-DRB1*0301 (human), the IC50 stood at 4950 nM.

B11: … (peptide)
peptide: RVFTEAMTR
modifications: not checked
For B11, in the assay with HLA-A0301 (human) [9], the Ki was < 1000 nM. Moreover, the IC50 in the assay with HLA-A*0301 (human) was 45 nM.

B12: … (peptide)
peptide: YLKGSSGGPL
modifications: not checked
In turn, B12 showed a Ki with HLA-B0801 (human) [5] of 10 nM.

B13: … (peptide)
peptide: RVCEKMALY
modifications: not checked
Consider B13, for which, in the assay with HLA-A0301 (human) [9], the Ki is < 1000 nM. The molecule also displayed an IC50 in the assay with HLA-A*0301 (human) of 53 nM.

B14: … (peptide)
peptide: EARQAIRSL
modifications: not checked
B14 gave a Ki with HLA-B0801 (human) [10] of 9 nM.

B15: … (peptide)
peptide: ARALAHGVRV
modifications: not checked
B15 came in with a Ki with HLA-Cw0602 (human) of 9880 nM.

These data come from patent US20060093617A1.
